According to publication doi:10.1101/2025.06.12.659315, “Structural Basis for Cas9-Directed Spacer Acquisition in Type II-A CRISPR-Cas Systems” (bioRxiv, 2025):

Assays:
[1] = target: the molecule itself; assay: cryo-EM structure; preassembled Cas9/RNA-Csn2-Cas1-Cas2 supercomplex incubated with a 59-bp PAM-containing dsDNA at 4 °C for 30 min; Cas9-containing prespacer catching complex, State I 2.96 Å and State II 3.01 Å
[2] = target: T1, Enterococcus faecalis Cas1-Cas2 integrase complex (Cas1_(4)-Cas2_(2) hexamer) (Enterococcus faecalis, UniProt A0A3N3GDE4 1-288; A0A3N3FLR9 1-109); assay: SEC; analytical SEC, Superdex 200 Increase 10/300 GL, 20 mM HEPES pH 7.5, 250 mM NaCl; Cas9/RNA, Csn2 and Cas1-Cas2 mixed; fractions analysed by SDS-PAGE (Coomassie); details: both partners purified
T1 construct: Cas1 of the Enterococcus faecalis type II-A CRISPR-Cas system, full length; as the chain of m3; Cas2 of the Enterococcus faecalis type II-A CRISPR-Cas system, full length; as the chain of m4; Complex formed beforehand; used as one partner in the gel filtration and DNA cleavage assays; also called Cas1-Cas2 hexamer; Cas1-Cas2 complex; source: E. coli BL21 Star (DE3); tag-cleaved Cas1 and Cas2 …
T1 sequence (looked up) 1: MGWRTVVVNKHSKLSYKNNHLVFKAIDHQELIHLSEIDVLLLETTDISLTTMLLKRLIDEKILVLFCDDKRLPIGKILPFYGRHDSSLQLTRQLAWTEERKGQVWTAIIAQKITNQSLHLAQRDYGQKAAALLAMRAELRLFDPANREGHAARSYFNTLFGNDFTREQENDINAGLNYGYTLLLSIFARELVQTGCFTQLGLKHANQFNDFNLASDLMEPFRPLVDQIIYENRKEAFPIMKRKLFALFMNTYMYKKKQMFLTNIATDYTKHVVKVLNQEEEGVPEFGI
T1 sequence (looked up) 2: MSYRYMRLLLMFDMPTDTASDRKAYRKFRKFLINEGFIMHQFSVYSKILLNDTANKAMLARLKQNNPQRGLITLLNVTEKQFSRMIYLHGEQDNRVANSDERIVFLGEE

[3] = target: the molecule itself; assay: cryo-EM structure; apo-state Cas9/RNA-Csn2-Cas1-Cas2 supercomplex, assembled from purified proteins and purified by SEC in 20 mM HEPES pH 7.5, 250 mM NaCl; 3.9 Å

Binder | stoichiometry N [1] | binding result [2] | stoichiometry N [3]
Enterococcus faecalis Cas1 (enzyme, UniProt A0A3N3GDE4 1-288, looked up, Cas1 of the Enterococcus faecalis type II-A CRISPR-Cas system, full-length gene amplified from E. faecalis genomic DNA; Cas1 was purified together with Cas2 (mixed 2:1) before use; also called EfaCas1; Cas1 dimer; source: E. coli BL21 Star (DE3), purified (Ni-NTA, SUMO protease cleavage, Superdex 200 SEC with Cas2)) MGWRTVVVNKHSKLSYKNNHLVFKAIDHQELIHLSEIDVLLLETTDISLTTMLLKRLIDEKILVLFCDDKRLPIGKILPFYGRHDSSLQLTRQLAWTEERKGQVWTAIIAQKITNQSLHLAQRDYGQKAAALLAMRAELRLFDPANREGHAARSYFNTLFGNDFTREQENDINAGLNYGYTLLLSIFARELVQTGCFTQLGLKHANQFNDFNLASDLMEPFRPLVDQIIYENRKEAFPIMKRKLFALFMNTYMYKKKQMFLTNIATDYTKHVVKVLNQEEEGVPEFGI | 2 |  | 
Enterococcus faecalis Csn2 (natural protein, UniProt C7UDU4 1-219, looked up, Csn2 of the Enterococcus faecalis type II-A CRISPR-Cas system, full-length gene amplified from E. faecalis genomic DNA; Homotetramer ring with a central channel for dsDNA; also called EfaCsn2; Csn2 tetramer; source: E. coli BL21 Star (DE3), purified (Ni-NTA, TEV cleavage, Superdex 200 SEC); not shown: His6, N-terminal, cleaved; MBP, N-terminal, cleaved) MRVNFSLLEEPIEIEKATFLTIKDVQSFAHLVKLIYQYDGENELKLFDAQQKGLKPTELFVVTDILGYDVNSAATLKLIYGDLEAQLNDKPEVKSMIEKLTGTISQLIGYELLEHEMDLEEDGIIVQELFKALGIKIETTSDTIFEKVMEITQVHRYLSKKKLLIFINACTYLTEDEVQQVVEYISLNNVDVLFLEQRVVQNRFQYILDENFYLSYEKA | 4 | binds | 
Enterococcus faecalis Cas2 (natural protein, UniProt A0A3N3FLR9 1-109, looked up, Cas2 of the Enterococcus faecalis type II-A CRISPR-Cas system, full-length gene amplified from E. faecalis genomic DNA; Cas2 was purified together with Cas1 (Cas1:Cas2 mixed 2:1) before use; also called EfaCas2; Cas2 dimer; source: E. coli BL21 Star (DE3), purified (Ni-NTA, SUMO protease cleavage, Superdex 200 SEC with Cas1)) MSYRYMRLLLMFDMPTDTASDRKAYRKFRKFLINEGFIMHQFSVYSKILLNDTANKAMLARLKQNNPQRGLITLLNVTEKQFSRMIYLHGEQDNRVANSDERIVFLGEE |  |  | 2
